From the Immune Epitope Database (IEDB)

Columns and labels:
HLA-A*03:01 [1] = assay: IEDB peptide-MHC binding, purified MHC/competitive/fluorescence; filed as Kd, often an IC50 or EC50 that approximates it; ≥ and ≤ were set here for values at or beyond the usual limits of such assays
HLA-B*83:01 = assay: as above; details: source organism: Salmonella enterica subsp. enterica serovar Typhi
HLA-B*45:06 = assay: as above; details: source organism: Salmonella enterica subsp. enterica serovar Typhi
HLA-B*15:42 = assay: as above; details: source organism: Salmonella enterica subsp. enterica serovar Typhi
HLA-A*02:12 = assay: IEDB peptide-MHC binding, purified MHC/direct/fluorescence; filed as Kd, often an IC50 or EC50 that approximates it; ≥ and ≤ were set here for values at or beyond the usual limits of such assays
HLA-A*02:03 = assay: as above
HLA-A*11:01 = assay: as above
HLA-A*02:19 = assay: as above
HLA-A*68:02 = assay: as above
HLA-A*02:01 [2] = assay: IEDB peptide-MHC binding, purified MHC/competitive/fluorescence; filed as Kd, often an IC50 or EC50 that approximates it; ≥ and ≤ were set here for values at or beyond the usual limits of such assays
HLA-A*26:01 = assay: as above
HLA-B*39:01 [3] = assay: as above
HLA-B*46:01 [4] = assay: as above
HLA-B*51:01 = assay: as above
HLA-B*27:03 = assay: as above
HLA-B*57:01 [5] = assay: as above
HLA-B*18:01 [6] = assay: as above
HLA-A*69:01 [7] = assay: as above
HLA-A*02:01 [8] = assay: IEDB peptide-MHC binding, purified MHC/direct/fluorescence; filed as Kd, often an IC50 or EC50 that approximates it; ≥ and ≤ were set here for values at or beyond the usual limits of such assays; details: source organism: Mammarenavirus juninense
HLA-B*07:02 = assay: as above
HLA-B*39:01 [9] = assay: as above
HLA-A*31:01 = assay: as above; details: source organism: Mammarenavirus juninense
HLA-B*46:01 [10] = assay: as above
HLA-B*58:01 = assay: as above; details: source organism: Mammarenavirus juninense
HLA-B*44:02 = assay: as above
HLA-B*40:01 = assay: as above
HLA-A*03:01 [11] = assay: as above
HLA-A*29:02 = assay: as above
HLA-B*15:01 [12] = assay: as above; details: source organism: Mammarenavirus juninense
HLA-B*57:01 [13] = assay: as above; details: source organism: Mammarenavirus juninense
HLA-B*27:05 = assay: as above
HLA-B*18:01 [14] = assay: as above; details: source organism: Mammarenavirus juninense
HLA-A*69:01 [15] = assay: as above; details: source organism: Mammarenavirus juninense
HLA-A*01:01 = assay: as above
HLA-A*02:11 = assay: as above; details: source organism: Zaire ebolavirus
HLA-A*02:16 = assay: as above
HLA-A*24:03 = assay: as above
HLA-B*15:17 = assay: IEDB peptide-MHC binding, purified MHC/competitive/fluorescence; filed as Kd, often an IC50 or EC50 that approximates it; ≥ and ≤ were set here for values at or beyond the usual limits of such assays
HLA-B*15:01 [16] = assay: as above
[17] = source organism: Cryptosporidium parvum Iowa II
[18] = source organism: Mammarenavirus juninense
[19] = source organism: Zaire ebolavirus
[20] = source organism: Coxiella burnetii
[21] = source organism: Mammarenavirus lassaense
[22] = source organism: Mycobacterium tuberculosis variant bovis BCG str. Pasteur 1173P2
[23] = source organism: Araucaria virus
[24] = source organism: Hantavirus HPR/02-73

## FMLSVHYRK
HLA-A*03:01 [1]; source organism: Listeria monocytogenes HCC23
  Kd: 0.364 µM

## FTFKVNSVK
HLA-B*83:01
  Kd: ≥ 5 µM
HLA-A*03:01 [1]; source organism: Salmonella enterica subsp. enterica serovar Typhi
  Kd: 0.152 µM
HLA-B*45:06
  Kd: ≥ 5 µM
HLA-B*15:42
  Kd: ≥ 5 µM

## GFPFFIMPK
HLA-A*02:12; [17]
  Kd: ≥ 20 µM
HLA-A*02:03; [17]
  Kd: ≥ 20 µM
HLA-A*11:01; [17]
  Kd: 0.078 µM
HLA-A*02:19; [17]
  Kd: ≥ 20 µM
HLA-A*68:02; [17]
  Kd: ≥ 20 µM
HLA-A*02:01 [2]; [17]
  Kd: ≥ 20 µM
HLA-A*26:01; [17]
  Kd: ≥ 20 µM
HLA-B*39:01 [3]; [17]
  Kd: ≥ 20 µM
HLA-B*46:01 [4]; [17]
  Kd: ≥ 20 µM
HLA-B*51:01; [17]
  Kd: ≥ 20 µM
HLA-B*27:03; [17]
  Kd: ≥ 20 µM
HLA-B*57:01 [5]; [17]
  Kd: ≥ 20 µM
HLA-B*18:01 [6]; [17]
  Kd: ≥ 20 µM
HLA-A*69:01 [7]; [17]
  Kd: ≥ 20 µM

## GKLDPTNTL
HLA-A*02:01 [8]
  Kd: ≥ 20 µM
HLA-B*07:02; [18]
  Kd: ≥ 20 µM
HLA-B*39:01 [9]; [18]
  Kd: 3 µM
HLA-A*31:01
  Kd: ≥ 20 µM
HLA-B*46:01 [10]; [18]
  Kd: ≥ 20 µM
HLA-B*58:01
  Kd: ≥ 20 µM
HLA-B*44:02; [18]
  Kd: ≥ 20 µM
HLA-B*40:01; [18]
  Kd: ≥ 20 µM
HLA-A*03:01 [11]; [18]
  Kd: ≥ 20 µM
HLA-A*29:02; [18]
  Kd: ≥ 20 µM
HLA-B*15:01 [12]
  Kd: ≥ 20 µM
HLA-B*57:01 [13]
  Kd: ≥ 20 µM
HLA-B*27:05; [18]
  Kd: ≥ 20 µM
HLA-B*18:01 [14]
  Kd: ≥ 20 µM
HLA-A*69:01 [15]
  Kd: ≥ 20 µM
HLA-A*01:01; [18]
  Kd: ≥ 20 µM

## HISWQGPGK
HLA-A*03:01 [1]; source organism: Vibrio atlanticus LGP32
  Kd: 0.218 µM

## IFLKPDETF
HLA-A*02:12; [19]
  Kd: ≥ 20 µM
HLA-A*02:03; [19]
  Kd: ≥ 20 µM
HLA-A*02:11
  Kd: ≥ 20 µM
HLA-A*02:19; [19]
  Kd: ≥ 20 µM
HLA-A*02:16; [19]
  Kd: ≥ 20 µM
HLA-A*03:01 [11]; [19]
  Kd: ≥ 20 µM
HLA-A*68:02; [19]
  Kd: ≥ 20 µM
HLA-A*24:03; source organism: Sudan ebolavirus - Maleo (1979)
  Kd: 0.0366 µM
HLA-A*02:01 [2]; [19]
  Kd: ≥ 20 µM
HLA-A*26:01; [19]
  Kd: ≥ 20 µM
HLA-B*39:01 [3]; [19]
  Kd: ≥ 20 µM
HLA-B*15:17; [19]
  Kd: ≥ 20 µM
HLA-B*46:01 [4]; [19]
  Kd: ≥ 20 µM
HLA-B*51:01; [19]
  Kd: ≥ 20 µM
HLA-B*27:03; [19]
  Kd: ≥ 20 µM
HLA-B*15:01 [16]; [19]
  Kd: ≥ 20 µM
HLA-B*57:01 [5]; [19]
  Kd: ≥ 20 µM
HLA-B*18:01 [6]; [19]
  Kd: ≥ 20 µM
HLA-A*69:01 [7]; [19]
  Kd: ≥ 20 µM

## KFFMVHSLK
HLA-A*02:12; [20]
  Kd: ≥ 20 µM
HLA-A*02:03; [20]
  Kd: ≥ 20 µM
HLA-A*11:01; [20]
  Kd: 0.603 µM
HLA-A*02:19; [20]
  Kd: ≥ 20 µM
HLA-A*02:16; [20]
  Kd: ≥ 20 µM
HLA-A*68:02; [20]
  Kd: ≥ 20 µM
HLA-A*24:03; [20]
  Kd: ≥ 20 µM
HLA-A*02:01 [2]; [20]
  Kd: ≥ 20 µM
HLA-A*26:01; [20]
  Kd: ≥ 20 µM
HLA-B*39:01 [3]; [20]
  Kd: ≥ 20 µM
HLA-B*15:17; [20]
  Kd: ≥ 20 µM
HLA-B*46:01 [4]; [20]
  Kd: ≥ 20 µM
HLA-B*51:01; [20]
  Kd: ≥ 20 µM
HLA-B*27:03; [20]
  Kd: ≥ 20 µM
HLA-B*57:01 [5]; [20]
  Kd: ≥ 20 µM
HLA-B*18:01 [6]; [20]
  Kd: ≥ 20 µM
HLA-A*69:01 [7]; [20]
  Kd: ≥ 20 µM

## KREEHYIVL
HLA-B*07:02; [21]
  Kd: ≥ 20 µM
HLA-B*39:01 [9]; [21]
  Kd: 0.1 µM
HLA-B*46:01 [10]; [21]
  Kd: ≥ 20 µM
HLA-B*44:02; [21]
  Kd: ≥ 20 µM
HLA-A*03:01 [11]; [21]
  Kd: ≥ 20 µM
HLA-B*27:05; [21]
  Kd: ≥ 20 µM

## MTSGSSSGF
HLA-A*29:02; source organism: Mycobacterium tuberculosis H37Rv
  Kd: 0.051 µM
HLA-A*01:01; source organism: Mycobacterium tuberculosis
  Kd: ≥ 5 µM

## QETWTRLVL
HLA-B*39:01 [9]; [22]
  Kd: 0.108 µM
HLA-B*40:01; [22]
  Kd: 0.0389 µM

## RLLHRTTRH
HLA-A*03:01 [1]; source organism: Burkholderia vietnamiensis G4
  Kd: 0.012 µM

## SQVRVPTVF
HLA-A*02:12; [19]
  Kd: ≥ 20 µM
HLA-A*02:03; [19]
  Kd: ≥ 20 µM
HLA-A*02:11
  Kd: ≥ 20 µM
HLA-A*02:19; [19]
  Kd: ≥ 20 µM
HLA-A*02:16; [19]
  Kd: ≥ 20 µM
HLA-A*03:01 [11]; [19]
  Kd: ≥ 20 µM
HLA-A*68:02; [19]
  Kd: ≥ 20 µM
HLA-A*29:02; [19]
  Kd: ≥ 20 µM
HLA-A*24:03; source organism: Sudan ebolavirus - Uganda (2000)
  Kd: ≥ 20 µM
HLA-A*02:01 [2]; [19]
  Kd: ≥ 20 µM
HLA-A*26:01; [19]
  Kd: ≥ 20 µM
HLA-B*39:01 [3]; [19]
  Kd: ≥ 20 µM
HLA-B*15:17; [19]
  Kd: ≥ 20 µM
HLA-B*46:01 [4]; [19]
  Kd: ≥ 20 µM
HLA-B*51:01; [19]
  Kd: ≥ 20 µM
HLA-B*27:03; [19]
  Kd: ≥ 20 µM
HLA-B*57:01 [5]; [19]
  Kd: ≥ 20 µM
HLA-A*69:01 [7]; [19]
  Kd: ≥ 20 µM

## VIWAASGFY
HLA-A*03:01 [1]; source organism: Yersinia pestis Nepal516
  Kd: 0.0956 µM

## WKAIGAYIL
HLA-A*02:12; [23]
  Kd: ≥ 20 µM
HLA-A*02:03; [23]
  Kd: ≥ 20 µM
HLA-B*39:01 [9]; source organism: Juquitiba virus
  Kd: 0.0269 µM
HLA-A*02:19; [23]
  Kd: ≥ 20 µM
HLA-A*03:01 [11]; [23]
  Kd: ≥ 20 µM
HLA-A*68:02; [23]
  Kd: ≥ 20 µM
HLA-A*29:02; [23]
  Kd: ≥ 20 µM
HLA-A*24:03; [23]
  Kd: ≥ 20 µM
HLA-A*26:01; [24]
  Kd: ≥ 20 µM
HLA-B*15:17; [24]
  Kd: ≥ 20 µM
HLA-B*46:01 [4]; [24]
  Kd: ≥ 20 µM
HLA-B*51:01; [24]
  Kd: ≥ 20 µM
HLA-B*27:03; [24]
  Kd: ≥ 20 µM
HLA-B*15:01 [16]; [24]
  Kd: ≥ 20 µM
HLA-B*57:01 [5]; [24]
  Kd: ≥ 20 µM
HLA-B*18:01 [6]; [24]
  Kd: ≥ 20 µM
HLA-A*69:01 [7]; [24]
  Kd: ≥ 20 µM
